Patent US7115267

Experiments:
mu opiate receptor = test: cell-based or functional assay
[1] = molecular target: p141-ubiquitin fusion protein (human) (UniProt P0CG47); test: cell-based or functional assay
Sequence of p141-ubiquitin fusion protein (human) (P0CG47 other isoform, or with tags, fused parts or gaps): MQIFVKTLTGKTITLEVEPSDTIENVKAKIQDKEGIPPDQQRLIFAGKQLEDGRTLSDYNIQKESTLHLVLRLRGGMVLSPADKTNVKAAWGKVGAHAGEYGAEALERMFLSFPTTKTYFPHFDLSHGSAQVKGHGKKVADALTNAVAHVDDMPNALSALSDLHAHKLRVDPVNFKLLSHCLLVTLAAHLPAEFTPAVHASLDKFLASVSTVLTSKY

Substance | % Kill in the CFU-MIX cycling assay, Human Alpha (100 ng/ml) + CTOP 10^-7 M (0 without CTOP; control 42; CTOP alone 36) (mu opiate receptor) | digestion of the ubiquitin fusion protein in vivo (co-expression in bacteria) [1]
Purified human hemoglobin alpha chain (from UniProt P69905 2-142) | 20% | 
UBP1 ubiquinase (from UniProt P25037 1-809) (enzyme) |  | 70%
